Experiments:
Details in all cases: tags: S-tag fusion released by enterokinase; baculovirus Sf-9 secreted
[1] = target: T1, xPSM (extracellular portion of PSMA) (Homo sapiens (LNCaP cDNA), UniProt Q04609 Q04609:44-750); assay: inhibition; NAALADase assay, 8 nM substrate, 37 C
Procedure: (§1) NAAG hydrolysis was performed essentially as described in Robinson et al. (1987) J Biol Chem. 262:14498-506. LNCaP cell extracts were prepared by sonication in the presence of 50 mM Tris, pH 7.4, 0.5% Triton-X-100. Cell lysate or purified xPSM was incubated in the presence of the radiolabeled substrate N-acetyl-L-aspartyl-L-[3,4-³H]glutamate (NEN Life Science Products, Boston, Mass.) at 37° C. for 10-15 minutes. The reaction was stopped with an equal volume of ice-cold 100 mM sodium phosphate, 2 mM EDTA. Products were separated from intact substrate using anion exchange chromatography and quantitated by scintillation counting. […] In all cases less than 20% of substrate was cleaved.

[2] = target: T1, xPSM (extracellular portion of PSMA); assay: inhibition; noncompetitive NAALADase inhibition, 37 C
Procedure: as §1

[3] = target: T1, xPSM (extracellular portion of PSMA); assay: inhibition; competitive NAALADase inhibition, 37 C
Procedure: as §1

[4] = target: T1, xPSM (extracellular portion of PSMA); assay: inhibition; competitive NAALADase inhibition, +/-7.8 nM, 37 C
Procedure: as §1

T1 sequence (Q04609 44-750, one chain of several): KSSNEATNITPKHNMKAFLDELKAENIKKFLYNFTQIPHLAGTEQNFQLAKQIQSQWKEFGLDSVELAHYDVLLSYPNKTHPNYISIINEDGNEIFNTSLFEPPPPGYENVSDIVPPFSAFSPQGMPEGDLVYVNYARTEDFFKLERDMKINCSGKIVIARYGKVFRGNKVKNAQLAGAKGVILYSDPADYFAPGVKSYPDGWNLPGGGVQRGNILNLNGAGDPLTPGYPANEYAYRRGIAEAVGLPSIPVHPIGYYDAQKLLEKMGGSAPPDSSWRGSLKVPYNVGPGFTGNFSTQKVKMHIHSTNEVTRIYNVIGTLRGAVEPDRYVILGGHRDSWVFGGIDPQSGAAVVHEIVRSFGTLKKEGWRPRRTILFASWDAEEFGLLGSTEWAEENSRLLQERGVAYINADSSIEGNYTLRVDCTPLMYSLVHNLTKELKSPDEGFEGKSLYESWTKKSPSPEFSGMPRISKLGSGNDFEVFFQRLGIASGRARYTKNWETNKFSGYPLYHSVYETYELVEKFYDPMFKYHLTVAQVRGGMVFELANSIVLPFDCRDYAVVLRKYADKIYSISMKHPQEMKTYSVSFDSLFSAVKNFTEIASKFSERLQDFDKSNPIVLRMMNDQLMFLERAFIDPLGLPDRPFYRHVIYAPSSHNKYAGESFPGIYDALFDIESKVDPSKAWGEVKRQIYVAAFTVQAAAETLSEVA

Row | Binder | IC50 [1] [nM] | other results
1 | xPSM1.A10-4 (ssRNA, 2'-F all pyrimidines; purines 2'-OH) RNA: GGGAGGACGAUGCGGAUCAGCCAUGUUUACGUCACUCCUUGUCAAUCCUCA | > 700 | –
2 | GGGAGGACGAUGCGGACCGAAAAAGACCUGACUUCUAUACUAAGU (ssRNA, 2'-F all pyrimidines; purines 2'-OH) [xPSM1.A9-5] | > 300 | –
3 | xPSM1.A9-2 (ssRNA, 2'-F all pyrimidines; purines 2'-OH) RNA: GGGAGGACGAUGCGGACCGAAAAAGACCUGACUUCUAUACUAAGUCUACGUUCCCAGACG | 300 | –
4 | GGGAGGACGAUGCGGAUCAGCCAUGUUUACGUCACUCCUUG (ssRNA, 2'-F all pyrimidines; purines 2'-OH) [xPSM1.A10-6] | > 700 | –
5 | xPSM1.A9-3 (ssRNA, 2'-F all pyrimidines; purines 2'-OH) RNA: GGGAGGACGAUGCGGACCGAAAAAGACCUGACUUCUAUACUAAGUCUACGUUCCC | > 300 | –
6 | xPSM1.A9-1 (ssRNA, 2'-F all pyrimidines; purines 2'-OH) RNA: GGGAGGACGAUGCGGACCGAAAAAGACCUGACUUCUAUACUAAGUCUACGUUCCCAGACGACUCG | 8 | –
7 | GGGAGGACGAUGCGGACCGAAAAAGACCUGACUUCUAUACUAAGUCUACG (ssRNA, 2'-F all pyrimidines; purines 2'-OH) [xPSM1.A9-4] | > 300 | –
8 | GGGAGGACGAUGCGGACCGAAAAAGACCUGACUUCUAUAC (ssRNA, 2'-F all pyrimidines; purines 2'-OH) [xPSM1.A9-6] | > 300 | –
9 | GGGAGGACGAUGCGGAUCAGCCAUGUUUACGUCACUCCUUGUCAAU (ssRNA, 2'-F all pyrimidines; purines 2'-OH) [xPSM1.A10-5] | > 700 | –
10 | xPSM-A9 (ssRNA, 2'-F all pyrimidines; purines 2'-OH) RNA: GGGAGGACGAUGCGGACCGAAAAAGACCUGACUUCUAUACUAAGUCUACGUUCCCAGACGACUCGCCCGA | 5 | Ki [2]: 1.1 nM
11 | xPSM-A10 (62-A10) (ssRNA, 2'-F all pyrimidines; purines 2'-OH) RNA: GGGAGGACGAUGCGGAUCAGCCAUGUUUACGUCACUCCUUGUCAAUCCUCAUCGGCAGACGACUCGCCCGA | 80 | Ki [3]: 11.9 nM
12 | xPSM1.A10-1 (ssRNA, 2'-F all pyrimidines; purines 2'-OH) RNA: GGGAGGACGAUGCGGAUCAGCCAUGUUUACGUCACUCCUUGUCAAUCCUCAUCGGCAGACGACUCG | 40 | –
13 | xPSM1.A10-3 (ssRNA, 2'-F all pyrimidines; purines 2'-OH) RNA: GGGAGGACGAUGCGGAUCAGCCAUGUUUACGUCACUCCUUGUCAAUCCUCAUCGGC | 50 | Ki [4]: 20.5 nM

From patent US20020119473, “Nucleic acid ligands to the prostate specific membrane antigen” (published 2002)
